Article PMC3783163, “Attachment site recognition and regulation of directionality by the serine integrases”

Tests used:
[1] = system: LI integrase WT (Listeria innocua prophage (CLIP 11262; cloned from ATCC BAA-680D genomic DNA)); test: EMSA; details: EMSA: 20 mM Tris-HCl pH 7.4, 150 mM KCl, 2 mM DTT, 25 ug/ml BSA, 25 ug/ml salmon sperm DNA, 5% glycerol, ~1 nM DNA, 30 min at 30 C; 6% PAGE Tris-glycine pH …
[2] = system: LI integrase ΔZD (Listeria innocua prophage (CLIP 11262; cloned from ATCC BAA-680D genomic DNA)); test: EMSA; details: EMSA: 20 mM Tris-HCl pH 7.4, 150 mM KCl, 2 mM DTT, 25 ug/ml BSA, 25 ug/ml salmon sperm DNA, 5% glycerol, ~1 nM DNA, 30 min at 30 C; 6% PAGE Tris-glycine pH …
[3] = biological target: T1, LI integrase CTD (Listeria innocua prophage (CLIP 11262; …, UniProt Q928V6 133-452); test: crystal structure (3.2 A); Zn2+ bound; 13 mM CaCl2 in drop; EMSA: 20 mM Tris-HCl pH 7.4, 150 mM KCl, 2 mM DTT, 25 ug/ml BSA, 25 ug/ml salmon sperm DNA, 5% glycerol, ~1 nM DNA, 30 min at 30 C; 6% PAGE Tris-glycine pH 8.3; details: protein: recombinant; tags: C-terminal His6 (LEH6); 5' overhangs 1 nt (G top, C bottom), 25 bp duplex
T1 sequence: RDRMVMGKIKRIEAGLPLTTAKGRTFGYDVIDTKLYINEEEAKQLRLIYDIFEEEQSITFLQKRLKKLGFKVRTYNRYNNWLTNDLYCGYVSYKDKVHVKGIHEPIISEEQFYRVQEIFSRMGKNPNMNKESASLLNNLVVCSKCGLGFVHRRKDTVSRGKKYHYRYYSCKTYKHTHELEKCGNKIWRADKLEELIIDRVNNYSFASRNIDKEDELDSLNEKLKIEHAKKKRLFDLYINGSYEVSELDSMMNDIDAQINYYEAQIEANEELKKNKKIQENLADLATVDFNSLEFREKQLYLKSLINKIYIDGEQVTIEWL

Row | Molecule | Kd [1] [nM] | binding signal (fold weaker than WT) [2] | binding result [3]
1 | LI attB 119-bp probe | 20 | 25 | 
2 | LI attP 119-bp probe | 20 | 25 | 
3 | A118 attP P-arm half-site (crystal) (dsDNA) DNA 1: GTTTAGTTCCTCGTTTTCTCTCGTTG DNA 2: CCAACGAGAGAAAACGAGGAACTAAA |  |  | binds
